# Test results as given in PMC6688830, “A Ubiquitin-Binding Domain that Binds a Structural Fold Distinct from that of Ubiquitin” (Structure(London, England:1993), 2019).
# Molecular target: T1, KAP1 S33-K434 (human, UniProt Q13263 33-434)
# T1 construct: KAP1 (TRIM28), human, UniProt Q13263, residues S33-K434 (RBCC domain); The crystal structures of shorter RBCC constructs show an antiparallel homodimer; also called KAP1 RBCC (S33-K434); KAP1 RBCC; source: E. coli BL-21 CodonPlus (DE3)-RP, purified (Ni-NTA, Ulp1, Mono Q)
# Assay: ITC; MicroCal ITC200, 20°C; KAP1 RBCC (9-18 μM) in the cell, SMARCAD1 CUE1 or CUE1,2 (90-300 μM) in the syringe; 10 mM Tris-HCl pH 7.9, 100 mM NaCl, 5 mM β-ME; One set of sites model
# Settings: both partners purified
# T1 sequence (Q13263 33-434): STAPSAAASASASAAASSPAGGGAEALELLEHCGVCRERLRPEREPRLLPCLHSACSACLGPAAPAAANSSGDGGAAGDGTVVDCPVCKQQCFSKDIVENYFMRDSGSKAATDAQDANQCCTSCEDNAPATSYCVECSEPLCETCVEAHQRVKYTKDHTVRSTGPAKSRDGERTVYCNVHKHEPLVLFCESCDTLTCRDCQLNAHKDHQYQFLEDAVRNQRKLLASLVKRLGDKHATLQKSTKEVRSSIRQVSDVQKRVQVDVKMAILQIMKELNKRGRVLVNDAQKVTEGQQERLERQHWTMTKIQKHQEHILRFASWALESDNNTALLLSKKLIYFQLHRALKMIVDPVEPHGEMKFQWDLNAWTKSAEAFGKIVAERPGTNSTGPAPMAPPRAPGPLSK
row,Kd [µM],Binder
1,~0.158,"FLAG-CUE1 (domain or fragment, human, UniProt Q9H4L7 95-237, looked up, SMARCAD1, human, UniProt Q9H4L7, residues S95-E237 (first CUE domain); also called wild-type CUE1 fragment (S95-E237); SMARCAD1 CUE1; source: E. coli BL-21 CodonPlus (DE3)-RIL, purified (Ni-NTA, Ulp1, Mono Q if required)) SSDSEDVVSPNCSNTVQEKTFNKDTVIIVSEPSEDEESQGLPTMARRNDDISELEDLSELEDLKDAKLQTLKELFPQRSDNDLLKLIESTSTMDGAIAAALLMFGDAGGGPRKRKLSSSSEPYEEDEFNDDQSIKKTRLDHGE"

# Molecular target: T2, Ubiquitin (UniProt P0CG48 1-76)
# T2 construct: ubiquitin, monomeric, the cut product of a ubiquitin precursor; also called mono-Ub; monomeric ubiquitin; source: bought: Boston Biochem (purified recombinant)
# Assay: ITC; MicroCal ITC200, 10°C; 120 μM SMARCAD1 CUE1 or CUE1,2 in the cell, 9.8 mM mono-Ub in the syringe; 10 mM Tris-HCl pH 7.9, 100 mM NaCl, 5 mM β-ME; One set of sites model
# Settings: both partners purified
row,Kd [µM],Binder
1,~952,"FLAG-CUE1 (domain or fragment, human, UniProt Q9H4L7 95-237, looked up, SMARCAD1, human, UniProt Q9H4L7, residues S95-E237 (first CUE domain); also called wild-type CUE1 fragment (S95-E237); SMARCAD1 CUE1; source: E. coli BL-21 CodonPlus (DE3)-RIL, purified (Ni-NTA, Ulp1, Mono Q if required)) SSDSEDVVSPNCSNTVQEKTFNKDTVIIVSEPSEDEESQGLPTMARRNDDISELEDLSELEDLKDAKLQTLKELFPQRSDNDLLKLIESTSTMDGAIAAALLMFGDAGGGPRKRKLSSSSEPYEEDEFNDDQSIKKTRLDHGE"

# Molecular target: T1, KAP1 S33-K434
# Assay: co-IP; purified SMARCAD1 fragments (FLAG-CUE1,2, FLAG-CUE1) and KAP1 RBCC, 9.6μg each in 240μL, 4°C 1 hour; anti-FLAG M2 affinity gel 3 hours
# Settings: both partners purified
row,binding result,Binder
1,binds,"FLAG-CUE1,2 P170A (domain or fragment, human, UniProt Q9H4L7 95-347, looked up, SMARCAD1, human, UniProt Q9H4L7, CUE1,2 fragment S95-N347; source: E. coli BL-21 CodonPlus (DE3)-RIL, purified (Ni-NTA, Ulp1, Mono Q if required)) SSDSEDVVSPNCSNTVQEKTFNKDTVIIVSEPSEDEESQGLPTMARRNDDISELEDLSELEDLKDAKLQTLKELFAQRSDNDLLKLIESTSTMDGAIAAALLMFGDAGGGPRKRKLSSSSEPYEEDEFNDDQSIKKTRLDHGEESNESAESSSNWEKQESIVLKLQKEFPNFDKQELREVLKEHEWMYTEALESLKVFAEDQDMQYVSQSEVPNGKEVSSRSQNYPKNATKTKLKQKFSMKAQNGFNKKRKKN"
2,binds,"FLAG-CUE1,2 L195A (domain or fragment, human, UniProt Q9H4L7 95-347, looked up, SMARCAD1, human, UniProt Q9H4L7, CUE1,2 fragment S95-N347; source: E. coli BL-21 CodonPlus (DE3)-RIL, purified (Ni-NTA, Ulp1, Mono Q if required)) SSDSEDVVSPNCSNTVQEKTFNKDTVIIVSEPSEDEESQGLPTMARRNDDISELEDLSELEDLKDAKLQTLKELFPQRSDNDLLKLIESTSTMDGAIAAAALMFGDAGGGPRKRKLSSSSEPYEEDEFNDDQSIKKTRLDHGEESNESAESSSNWEKQESIVLKLQKEFPNFDKQELREVLKEHEWMYTEALESLKVFAEDQDMQYVSQSEVPNGKEVSSRSQNYPKNATKTKLKQKFSMKAQNGFNKKRKKN"
3,binds,"FLAG-CUE1,2 E167A (domain or fragment, human, UniProt Q9H4L7 95-347, looked up, SMARCAD1, human, UniProt Q9H4L7, CUE1,2 fragment S95-N347; source: E. coli BL-21 CodonPlus (DE3)-RIL, purified (Ni-NTA, Ulp1, Mono Q if required)) SSDSEDVVSPNCSNTVQEKTFNKDTVIIVSEPSEDEESQGLPTMARRNDDISELEDLSELEDLKDAKLQTLKALFPQRSDNDLLKLIESTSTMDGAIAAALLMFGDAGGGPRKRKLSSSSEPYEEDEFNDDQSIKKTRLDHGEESNESAESSSNWEKQESIVLKLQKEFPNFDKQELREVLKEHEWMYTEALESLKVFAEDQDMQYVSQSEVPNGKEVSSRSQNYPKNATKTKLKQKFSMKAQNGFNKKRKKN"
4,binds,"FLAG-CUE1,2 L196A (domain or fragment, human, UniProt Q9H4L7 95-347, looked up, SMARCAD1, human, UniProt Q9H4L7, CUE1,2 fragment S95-N347; source: E. coli BL-21 CodonPlus (DE3)-RIL, purified (Ni-NTA, Ulp1, Mono Q if required)) SSDSEDVVSPNCSNTVQEKTFNKDTVIIVSEPSEDEESQGLPTMARRNDDISELEDLSELEDLKDAKLQTLKELFPQRSDNDLLKLIESTSTMDGAIAAALAMFGDAGGGPRKRKLSSSSEPYEEDEFNDDQSIKKTRLDHGEESNESAESSSNWEKQESIVLKLQKEFPNFDKQELREVLKEHEWMYTEALESLKVFAEDQDMQYVSQSEVPNGKEVSSRSQNYPKNATKTKLKQKFSMKAQNGFNKKRKKN"
